This is an account of results in patent US20200148774A1 (Genentech, published 2020).

Experiment [1] concerns the target T1, recombinant cynomolgus CLL-1 extracellular domain (ECD, amino acids 65-265) fused to an N-terminal Flag (cynomolgus monkey).
T1 construct: Construct stated for the immunogen; also called CynoCLL-1 Flag; cynoCLL-1
T1 chain: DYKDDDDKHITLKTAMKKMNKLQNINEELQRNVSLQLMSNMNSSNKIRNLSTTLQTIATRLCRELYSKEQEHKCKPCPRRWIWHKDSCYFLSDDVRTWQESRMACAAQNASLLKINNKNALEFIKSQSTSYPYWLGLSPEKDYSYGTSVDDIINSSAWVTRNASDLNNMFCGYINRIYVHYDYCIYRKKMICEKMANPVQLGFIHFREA
Description: SPR (Biacore T200), IgG captured by anti-human Fc, CLL-1 as analyte. A general note: In SPR one partner is held on a chip, and binding of the other changes the refractive index at the surface.

The target in experiment [2] is T2, recombinant human CLL-1 extracellular domain (ECD, amino acids 65-265) fused to an N-terminal Flag (human, UniProt Q5QGZ9 65-265).
T2 construct: The construct and the K244Q SNP are stated for the immunogen; they are not written as a piece; also called huCLL-1-Flag; huCLL-1
T2 chain: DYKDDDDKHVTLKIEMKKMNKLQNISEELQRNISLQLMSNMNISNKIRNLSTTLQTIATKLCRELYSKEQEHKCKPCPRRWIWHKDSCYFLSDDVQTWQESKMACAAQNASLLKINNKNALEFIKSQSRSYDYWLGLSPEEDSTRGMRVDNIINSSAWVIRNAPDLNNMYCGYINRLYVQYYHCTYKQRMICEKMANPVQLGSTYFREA
Described as above.

The target in experiment [3] is T2, recombinant human CLL-1 extracellular …. Description: SPR (Biacore T200), IgG captured by anti-human Fc, human CLL-1 as analyte. On the procedure:
The binding affinity of the antibodies in this section was determined by BIAcore™ T200 Format. Briefly, BIAcore™ research grade CM5 chips were activated with 1-ethyl-3-(3-dimethylaminopropyl) carbodiimide (EDC) and N-hydroxysuccinimide (NHS) reagents according to the supplier's instructions. Goat anti-human Fc IgGs were coupled to the chips to achieve approximately 10,000 response units (RU) in each flow cell. Unreacted coupling groups were blocked with 1M ethanolamine. For kinetics measurements, antibodies were captured to achieve approximately 300 RU. Three-fold serial dilutions of human CLL-1 was injected in HBS-P buffer (0.01M HEPES pH7.4, 0.15M NaCl, 0.005% surfactant P20) at 25° C. with a flow rate of 30 μl/min. Association rates (kon) and dissociation rates (koff) were calculated using a 1:1 Langmuir binding model (BIAcore™ T200 Evaluation Software version 2.0). The equilibrium dissociation constant (Kd) was calculated as the ratio koff/kon.

The target of experiment [4] is T3, human CLL-1 on cells (endogenous on HL-60, EOL-1 and other AML cell lines and CD14+ monocytes); recombinant on … (human, UniProt Q5QGZ9 1-265).
T3 sequence: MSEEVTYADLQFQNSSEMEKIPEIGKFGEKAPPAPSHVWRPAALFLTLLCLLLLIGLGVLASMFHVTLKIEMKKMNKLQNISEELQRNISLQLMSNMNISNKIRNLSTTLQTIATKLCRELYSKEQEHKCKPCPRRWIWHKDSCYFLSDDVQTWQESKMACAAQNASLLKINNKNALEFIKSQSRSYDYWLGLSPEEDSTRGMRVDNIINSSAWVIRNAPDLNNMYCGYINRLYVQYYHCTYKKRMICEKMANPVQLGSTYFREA
Put plainly: cell-based or functional assay.

For experiment [5], the target named is T3, human CLL-1 on cells (endogenous on …). Description: cell-based or functional assay. The source holds these as a separate data set.
Experiment [6] shares this target. Put plainly: cell-based or functional assay. This is another data set of the same source.
The target in experiment [7] is T4, hCD3ε (human, UniProt P07766 23-126).
T4 construct: Also used for the value printed only as 'hCD3 (0.05 nM'); also called human CD3ε polypeptide
T4 sequence (P07766 23-126): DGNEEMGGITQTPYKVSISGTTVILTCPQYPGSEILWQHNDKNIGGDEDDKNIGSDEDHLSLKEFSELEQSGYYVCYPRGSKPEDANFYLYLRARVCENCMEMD
Description: SPR (Biacore), Fab.

B1: 6E7.L4H1eE54 (antibody, V domains shown)
VH: EVQLVQSGAEVKKPGASVKVSCKASGYSFTDYYMHWVRQAPGQGLEWIGRINPYEGAAFYSQNFKDRVTLTVDTSTSTAYLELSSLRSEDTAVYYCAIERGADLEGYAMDYWGQGTLVTVSS
VL: DIQMTQSPSSLSASVGDRVTITCRASQSVSTSSYNYMHWYQQKPGKPPKLLIKYASNLESGVPSRFSGSGSGTDFTLTISSLQPEDFATYYCQHSWEIPLTFGQGTKVEIK
notes: IgG
For the molecule B1, in experiment [1], the equilibrium dissociation constant (Kd) (as a rule, the constant that tells how readily two partners part at equilibrium) was determined as 4.26 nM; the off-rate constant (koff) (usually the rate constant with which the complex falls apart) came out at 0.00283 s⁻¹; the on-rate constant (kon) (commonly the second-order rate constant of association) came to 664000 M⁻¹ s⁻¹. In addition, in experiment [2], the equilibrium dissociation constant (Kd) was 5.09 nM, the dissociation rate constant (koff) came out at 0.00248 s⁻¹ and the kon came out at 488000 M⁻¹ s⁻¹.

B2: humanized 6E7 variant CDRs graft+K49(LC)+(A67, L69, V71, K73 (HC)) (antibody, V domains shown)
VH: EVQLVQSGAEVKKPGASVKVSCKASGYSFTDYYMHWVRQAPGQGLEWIGRINPYNGAAFYSQNFKDRATLTVDKSTSTAYLELSSLRSEDTAVYYCAIERGADLEGYAMDYWGQGTLVTVSS
VL: DIQMTQSPSSLSASVGDRVTITCRASQSVSTSSYNYMHWYQQKPGKPPKLLIKYASNLESGVPSRFSGSGSGTDFTLTISSLQPEDFATYYCQHSWEIPLTFGQGTKVEIK
On to B2, for which the Kd in experiment [3] was 1.4 nM.

B3: 6E7.L4H1eS54 (antibody, V domains shown)
VH: EVQLVQSGAEVKKPGASVKVSCKASGYSFTDYYMHWVRQAPGQGLEWIGRINPYSGAAFYSQNFKDRVTLTVDTSTSTAYLELSSLRSEDTAVYYCAIERGADLEGYAMDYWGQGTLVTVSS
VL: DIQMTQSPSSLSASVGDRVTITCRASQSVSTSSYNYMHWYQQKPGKPPKLLIKYASNLESGVPSRFSGSGSGTDFTLTISSLQPEDFATYYCQHSWEIPLTFGQGTKVEIK
notes: IgG
For the molecule B3, in experiment [1], the equilibrium dissociation constant (Kd) turned out to be 6.37 nM, the off-rate (koff) came out at 0.00327 s⁻¹ and the kon is 513000 M⁻¹ s⁻¹. Moreover, in experiment [2], the Kd is 14.1 nM, the koff is 0.0072 s⁻¹ and the kon worked out at 510000 M⁻¹ s⁻¹.

B4: h21C9 (h21C9.L2H3)×38E4v1 TDB (bispecific antibody, V domains shown)
VH 1: EVQLVQSGAEVKKPGASVKVSCKASGYTFTDYYLDWVRQAPGQGLEWIGRVNPYNGGTIYNQKFKGRVTLTRDTSTSTAYLELSSLRSEDTAVYYCARDHYRYDPLLDYWGQGTLVTVSS
VL 1: DIQMTQSPSSLSASVGDRVTITCKASQDVSTAVAWFQQKPGKAPKLLIYSPSYRYTGVPSRFSGSGSGTDFTLTISSLQPEDFATYYCQQLYSTPYTFGQGTKVEIK
VH 2: EVQLVQSGAEVKKPGASVKVSCKASGFTFTSYYIHWVRQAPGQGLEWIGWIYPENDNTKYNEKFKDRVTITADTSTSTAYLELSSLRSEDTAVYYCARDGYSRYYFDYWGQGTLVTVSS
VL 2: DIVMTQSPDSLAVSLGERATINCKSSQSLLNSRTRKNYLAWYQQKPGQSPKLLIYWTSTRKSGVPDRFSGSGSGTDFTLTISSLQAEDVAVYYCKQSFILRTFGQGTKVEIK
On to B4, for which the “EC50 of killing of EOL-1 (other donors)” value in experiment [4] was 0.0163 µg/mL. In experiment [5], the “average killing EC50, EOL-1” value is 0.0511 µg/mL; the “average killing EC50, HL-60” value came to 1.76 µg/mL; the “average killing EC50, human autologous CD14+” value was found to be 14.8 ng/ml.

B5: 21C9.L2H3E54 (antibody, V domains shown)
VH: EVQLVQSGAEVKKPGASVKVSCKASGYTFTDYYLDWVRQAPGQGLEWIGRVNPYEGGTIYNQKFKGRVTLTRDTSTSTAYLELSSLRSEDTAVYYCARDHYRYDPLLDYWGQGTLVTVSS
VL: DIQMTQSPSSLSASVGDRVTITCKASQDVSTAVAWFQQKPGKAPKLLIYSPSYRYTGVPSRFSGSGSGTDFTLTISSLQPEDFATYYCQQLYSTPYTFGQGTKVEIK
With B5, in experiment [1], the dissociation constant (Kd) is 49600 nM, the dissociation rate constant (koff) was 0.0371 s⁻¹ and the kon worked out at 748 M⁻¹ s⁻¹. Besides, in experiment [2], the dissociation constant (Kd) is 862 nM, the off-rate constant (koff) was 0.0882 s⁻¹ and the on-rate (kon) was found to be 102000 M⁻¹ s⁻¹.

B6: 21C9.L2H3S54 (antibody, V domains shown)
VH: EVQLVQSGAEVKKPGASVKVSCKASGYTFTDYYLDWVRQAPGQGLEWIGRVNPYSGGTIYNQKFKGRVTLTRDTSTSTAYLELSSLRSEDTAVYYCARDHYRYDPLLDYWGQGTLVTVSS
VL: DIQMTQSPSSLSASVGDRVTITCKASQDVSTAVAWFQQKPGKAPKLLIYSPSYRYTGVPSRFSGSGSGTDFTLTISSLQPEDFATYYCQQLYSTPYTFGQGTKVEIK
B6: in experiment [1], the Kd is 5670 nM, the off-rate (koff) stood at 0.0207 s⁻¹ and the kon came out at 3660 M⁻¹ s⁻¹. In addition, in experiment [2], the Kd is 286 nM, the off-rate (koff) was determined as 0.0405 s⁻¹ and the association rate constant (kon) worked out at 142000 M⁻¹ s⁻¹.

B7: humanized 21C9 variant CDRs graft+(F36 and S43(LC))+L69 (HC) (antibody, V domains shown)
VH: EVQLVQSGAEVKKPGASVKVSCKASGYTFTDYYLDWVRQAPGQGLEWIGRVNPYNGGTIYNQKFKGRVTLTRDTSTSTAYLELSSLRSEDTAVYYCARDHYRYDPLLDYWGQGTLVTVSS
VL: DIQMTQSPSSLSASVGDRVTITCKASQDVSTAVAWFQQKPGKSPKLLIYSPSYRYTGVPSRFSGSGSGTDFTLTISSLQPEDFATYYCQQLYSTPYTFGQGTKVEIK
B7: in experiment [3], the dissociation constant Kd is 10.5 nM.

B8: 6E7.L4H1eA54×38E4v1 TDB (bispecific antibody, V domains shown)
VH 1: EVQLVQSGAEVKKPGASVKVSCKASGYSFTDYYMHWVRQAPGQGLEWIGRINPYAGAAFYSQNFKDRVTLTVDTSTSTAYLELSSLRSEDTAVYYCAIERGADLEGYAMDYWGQGTLVTVSS
VL 1: DIQMTQSPSSLSASVGDRVTITCRASQSVSTSSYNYMHWYQQKPGKPPKLLIKYASNLESGVPSRFSGSGSGTDFTLTISSLQPEDFATYYCQHSWEIPLTFGQGTKVEIK
VH 2: EVQLVQSGAEVKKPGASVKVSCKASGFTFTSYYIHWVRQAPGQGLEWIGWIYPENDNTKYNEKFKDRVTITADTSTSTAYLELSSLRSEDTAVYYCARDGYSRYYFDYWGQGTLVTVSS
VL 2: DIVMTQSPDSLAVSLGERATINCKSSQSLLNSRTRKNYLAWYQQKPGQSPKLLIYWTSTRKSGVPDRFSGSGSGTDFTLTISSLQAEDVAVYYCKQSFILRTFGQGTKVEIK
Turning to B8, the “Cell killing EC50 (EOL-1 cells, human CD8+ T cells)” value in experiment [6] was 0.034 µg/mL.

B9: 21C9.L2H3D54 (antibody, V domains shown)
VH: EVQLVQSGAEVKKPGASVKVSCKASGYTFTDYYLDWVRQAPGQGLEWIGRVNPYDGGTIYNQKFKGRVTLTRDTSTSTAYLELSSLRSEDTAVYYCARDHYRYDPLLDYWGQGTLVTVSS
VL: DIQMTQSPSSLSASVGDRVTITCKASQDVSTAVAWFQQKPGKAPKLLIYSPSYRYTGVPSRFSGSGSGTDFTLTISSLQPEDFATYYCQQLYSTPYTFGQGTKVEIK
As to B9, in experiment [1], the dissociation constant (Kd) is 217 nM, the koff was 0.00885 s⁻¹ and the kon was 40700 M⁻¹ s⁻¹.

B10: 21C9.L2H3A54 (antibody, V domains shown)
VH: EVQLVQSGAEVKKPGASVKVSCKASGYTFTDYYLDWVRQAPGQGLEWIGRVNPYAGGTIYNQKFKGRVTLTRDTSTSTAYLELSSLRSEDTAVYYCARDHYRYDPLLDYWGQGTLVTVSS
VL: DIQMTQSPSSLSASVGDRVTITCKASQDVSTAVAWFQQKPGKAPKLLIYSPSYRYTGVPSRFSGSGSGTDFTLTISSLQPEDFATYYCQQLYSTPYTFGQGTKVEIK
In the case of B10, in experiment [1], the dissociation constant Kd was 48200 nM, the koff was determined as 0.0215 s⁻¹ and the on-rate constant (kon) was found to be 445 M⁻¹ s⁻¹. For the same molecule, in experiment [2], the Kd is 622 nM, the koff came out at 0.0692 s⁻¹ and the kon amounted to 111000 M⁻¹ s⁻¹.

B11: 38E4v1 Fab (Fab, V domains shown)
VH: EVQLVQSGAEVKKPGASVKVSCKASGFTFTSYYIHWVRQAPGQGLEWIGWIYPENDNTKYNEKFKDRVTITADTSTSTAYLELSSLRSEDTAVYYCARDGYSRYYFDYWGQGTLVTVSS
VL: DIVMTQSPDSLAVSLGERATINCKSSQSLLNSRTRKNYLAWYQQKPGQSPKLLIYWTSTRKSGVPDRFSGSGSGTDFTLTISSLQAEDVAVYYCKQSFILRTFGQGTKVEIK
notes: Fab; also called 38E4v1 (Fab Biacore measurements)
In experiment [7], B11 displayed a Kd of 0.389 nM, a koff of 0.00317 s⁻¹ and a kon of 8.15e+06 M⁻¹ s⁻¹.
